In the RNAGym collection of RNA variant scans (doi:10.7554/elife.90254):

B1: LINE1-full (parent)
chain: UACGUAGGUGGUUUUCCCCUGAUAGUGCUAAGGGGGCCUGGAAGUUUGGACUGGGCAGAGCUCAACACAGCGUGGCAAAGUGGCUGUGGCUAGACUGCCUCUCUGGAUUCCUCGUCACUCAGCAGGGCAUCUCUGAGAGAAAUGCC

Variants of: B1
Assay: self-cleavage, relative activity (ratio to wild type); higher = more cleavage; in vitro, sequencing; the parent is a self-cleaving ribozyme

Variant | self-cleavage
U20C U62A | 0.11
U62C U108C | 0.05
A50G G144A | 1.46
U29G A124G | 0.44
U104A C113U | 0.51
A65G A136U | 0.07
A22U U52C | 1.73
A50U U91A | 0.34
U52A U81G | 1.63
G122A A140G | 0.53
A43G G126A | 1.16
C56A U104C | 0.1
A121C U134A | 0.84
C3U C131U | 1.02
U39A C66U | 0.05
U73C U87C | 0.2
A57G U91C | 0.4
G41A U130A | 1.57
G25C A69G | 0.14
G54A A65G | 0.02
U85C G127C | 0.24
A69G C95U | 0.06
U14C A79U | 1.97
U91G A140G | 0.02

Variant | self-cleavage
A31G | 1.11
U15A U87G | 0.2
A94G U112C | 0.13
A64G G75A | 0.17
A6U G126A | 1.8
U47A U81A | 1.11
A65G U85A | 0.07
U12A U73G | 0.73
U5C U23C | 0.83
A57U G125A | 0.04
G83A U115C | 1.47
U108C U109C | 1.51
A78G U96C | 0.1
G55U U134C | 0.29
U109C U132C | 1.03
U52A U143A | 1.37
U5C U14C | 0.99
A6G U52C | 0.72
G4A U85A | 0.04
U104C G105U | 1.66
U12G U132C | 1.02
C61G A124U | 0.11
C98U G105C | 0.75
A24U A57U | 0.16

Variant | self-cleavage
U14A U52C | 0.8
A2G U109C | 1.39
U52A A57U | 0.14
A57G U108A | 0.8
A78G G126U | 1.75
A117G A121U | 1.86
U47C A136C | 1.09
G35U U104C | 0.8
U15C U23C | 0.94
A6U U26C | 0.94
U39C U130C | 2.49
C38A U108A | 1.01
A117U A136G | 1.51
C37U U47A | 1.41
C110U G126A | 1.34
U29A A124C | 1.52
A31G U87C | 0.22
G80A G144A | 1.66
A78U A140C | 2.32
U115A U143A | 1.36
U26A A121G | 1.46
A121G U134G | 1.58
U13C A138U | 1.31
A92G U132A | 0.05

Variant | self-cleavage
C3U U62A | 0.2
U26C A31C | 1.23
U109A A142G | 1.39
A42G A117U | 1.33
G21A U91A | 0.37
G54U G114U | 0.74
U13C A124G | 1.04
U12G A64G | 0.52
G4U U130A | 1.16
U85C A121G | 0.25
A67G U112C | 0.39
A31U U52C | 0.87
G126U U134A | 0.84
U14A U81G | 0.8
U87A A138U | 0.03
U47C A121U | 1.52
U12G U112C | 1.01
C68G A141G | 0.04
U12A U81A | 1.89
A67G U143G | 0.37
A6U A117U | 1.53
A31U A94G | 0.36
G35A U109A | 1.59
A22G U130A | 1.52

Variant | self-cleavage
A69G U115C | 0.88
U15G A129G | 0.61
A67U A124G | 0.02
U47A C61A | 0.03
C19U A79G | 0.97
A42G C146U | 1.18
G88A U112A | 0.08
A94G U115A | 0.34
U73A G86A | 0.04
A92U A124G | 0.5
G60A G105U | 0.01
U62A U100C | 0.23
U62A U100A | 0.05
A69G U102A | 0.93
U20A A79U | 1.59
A42G U52A | 1.52
U13C G139U | 1.19
G35A A92C | 0.05
C71A C133U | 0.08
U9A U39C | 0.25
U112C A141G | 1.57
A64U A94U | 0.26
U115C A140U | 1.39
A6G U26A | 0.68

Variant | self-cleavage
U12C G88A | 0.1
G75A A107G | 1.66
U87C U130A | 0.19
U12C U119C | 1.64
A50G C51U | 0.62
G33U U132G | 1.74
A22U U130C | 1.35
U20C U115C | 1.57
A79G A107U | 1.41
A42G A67G | 0.88
U104C A129C | 2.1
C71U A124U | 1
U26A A92U | 0.61
G139U C145G | 2.02
A43U U109A | 1.38
C95A A138G | 0.09
U9A C113A | 0.39
U39C G137A | 1.09
U5A U47A | 0.59
A67G U115C | 0.55
U20A U29C | 1.09
C16A A129U | 1.15
G54A G82A | 0.9
C16U U52C | 1.47

Variant | self-cleavage
U109A U143C | 1.8
U12G A79G | 1.25
U46A U47A | 1.09
A65U G82U | 0.15
U15C C56U | 0.23
U52G U87G | 0.59
U20A A78G | 1.39
A31G G114A | 1.09
U47A A67U | 0.12
U62C C113U | 0
A77G U91C | 0
U115A U132C | 1.88
U62C A67U | 0.05
C3G A50U | 0.16
C113U A136U | 1.75
U115A A138C | 1.8
C68U A140G | 0.16
C113U A121G | 0.68
C3U G127A | 0.89
C19U U102C | 0.73
U62C C66U | 0.03
U62A U102G | 0.08
U12G C84U | 0.2
